Substitutions are numbered along the chain they refer to. Names and notes keep the numbering of the source. Values belong to the binder of their own block, whether it stands above or below them.
Columns and labels:
human FcRn [1] = target: T1, human FcRn (human, UniProt P55899 24-297; P61769 21-119); experiment: FcRn binding affinity at pH 6.0; method not stated
T1 construct: the construct is not described

human FcRn [2] = target: T1, human FcRn; experiment: binding to FcRn at pH 6.0; method not stated
[3] = target: T2, human FcγRIa extracellular domain with C-terminal His tag (human, UniProt P12314 16-292); experiment: SPR (Biacore), antibody captured, FcγR analyte
T2 construct: not shown: His tag at the C terminus
T2 sequence (P12314 16-292): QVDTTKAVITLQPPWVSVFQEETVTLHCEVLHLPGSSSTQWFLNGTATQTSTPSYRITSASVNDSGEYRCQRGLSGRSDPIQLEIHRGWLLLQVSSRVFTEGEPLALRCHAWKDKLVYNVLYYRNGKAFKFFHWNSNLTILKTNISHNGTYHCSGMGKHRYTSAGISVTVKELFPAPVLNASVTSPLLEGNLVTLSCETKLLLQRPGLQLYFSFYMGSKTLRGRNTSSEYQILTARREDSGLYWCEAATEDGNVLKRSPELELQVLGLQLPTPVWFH

[4] = target: T3, human FcγRIIa type R (allotype R131) extracellular domain with C-terminal His tag (human, UniProt P12318 34-217); experiment: SPR (Biacore), antibody captured, FcγR analyte
T3 construct: extracellular domain; also called FcγRIIaR; FcγRIIa R type; not shown: His tag at the C terminus
T3 sequence (looked up): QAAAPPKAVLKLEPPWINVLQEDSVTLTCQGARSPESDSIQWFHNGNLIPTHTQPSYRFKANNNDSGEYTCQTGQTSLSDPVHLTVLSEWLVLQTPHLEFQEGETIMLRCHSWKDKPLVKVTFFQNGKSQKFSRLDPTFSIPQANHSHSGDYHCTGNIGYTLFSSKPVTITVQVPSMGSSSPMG

[5] = target: T4, human FcγRIIIa type V (allotype V158) extracellular domain with C-terminal His tag (human, UniProt P08637 17-208); experiment: SPR (Biacore), antibody captured, FcγR analyte
T4 construct: extracellular domain; also called FcγRIIIaV; FcγRIIIa V type; not shown: His tag at the C terminus
T4 sequence (P08637 17-208 F176V): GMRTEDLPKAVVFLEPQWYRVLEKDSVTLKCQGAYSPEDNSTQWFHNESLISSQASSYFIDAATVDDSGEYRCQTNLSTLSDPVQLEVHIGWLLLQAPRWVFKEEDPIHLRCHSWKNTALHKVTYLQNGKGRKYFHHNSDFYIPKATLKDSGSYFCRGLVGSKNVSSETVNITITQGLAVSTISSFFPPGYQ

[6] = target: T5, human FcγRIIIa type V extracellular domain with C-terminal His tag (human, UniProt P08637 17-208); experiment: SPR, Ref. Ex. 25
T5 construct: extracellular domain; also called FcγRIIIaV; FcγRIIIa V type
T5 sequence (P08637 17-208 F176V): as above

[7] = target: T6, human FcγRIIa type R extracellular domain with C-terminal His tag (human, UniProt P12318 34-217); experiment: SPR (Biacore), antibody captured, FcγR as analyte
T6 construct: extracellular domain; also called FcγRIIaR; FcgRIIaR
T6 sequence (looked up): T3 sequence (looked up)

[8] = target: T7, human FcγRIIb extracellular domain with C-terminal His tag (human, UniProt P31994 43-217); experiment: SPR (Biacore), antibody captured, FcγR as analyte
T7 construct: extracellular domain; also called FcgRIIb
T7 sequence (looked up): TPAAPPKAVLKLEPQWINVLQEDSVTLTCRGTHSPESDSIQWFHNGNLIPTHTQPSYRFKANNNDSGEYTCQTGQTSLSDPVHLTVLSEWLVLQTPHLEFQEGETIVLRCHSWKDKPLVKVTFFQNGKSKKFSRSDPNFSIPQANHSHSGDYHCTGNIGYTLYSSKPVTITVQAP

Kd (human FcRn [1]): 210 nM
B1: Fv4-F1166 (antibody, IgG1)
heavy: QVQLQESGPGLVKPSETLSLTCAVSGHSISHDHAWSWVRQPPGEGLEWIGFISYSGITNYNPSLQGRVTISRDNSKNTLYLQMNSLRAEDTAVYYCARSLARTTAMDYWGEGTLVTVSSASTKGPSVFPLAPSSKSTSGGTAALGCLVKDYFPEPVTVSWNSGALTSGVHTFPAVLQSSGLYSLSSVVTVPSSSLGTQTYICNVNHKPSNTKVDKKVEPKSCDKTHTCPPCPAPELLGGPSVFLFPPKPKDTLYITREPEVTCVVVDVSHEDPEVKFNWYVDGVEVHNAKTKPREEQYNSTYRVVSVLTVLHQDWLNGKEYKCKVSNKALPAPIEKTISKAKGQPREPQVYTLPPSRDELTKNQVSLTCLVKGFYPSDIAVEWESNGQPENNYKTTPPVLDSDGSFFLYSKLTVDKSRWQQGNVFSCSVMHEALHNHYTRKELSLSP
light: DIQMTQSPSSLSASVGDSVTITCQASTDISSHLNWYQQKPGKAPELLIYYGSHLLSGVPSRFSGSGSGTDFTFTISSLEAEDAATYYCGQGNRLPYTFGQGTKVEIERTVAAPSVFIFPPSDEQLKSGTASVVCLLNNFYPREAKVQWKVDNALQSGNSQESVTEQDSKDSTYSLSSTLTLSKADYEKHKVYACEVTHQGLSSPVTKSFNRGEC
notes: copies: 2 + 2

Kd (human FcRn [2]): 270 nM
B2: Fv4-F1392 (antibody, human IgG1, kappa)
heavy: B1 heavy with Y254M, T256S, E258T, M430L, N436S, Y438K, R440Q, E442S
light: B1 light
notes: Variant of Fv4-LS; copies: 2 + 2

Kd (human FcRn [2]): 77 nM
B3: Fv4-F1385 (antibody, human IgG1, kappa)
heavy: B1 heavy with Y254M, T256S, E258T, S428Q, M430L, N436S, R440Q, E442S
light: B1 light
notes: as for B2

Kd (human FcRn [2]): 160 nM
B4: Fv4-F1383 (antibody, human IgG1, kappa)
heavy: B1 heavy with Y254M, T256S, E258T, S428R, M430L, N436S, R440Q, E442S
light: B1 light
notes: as for B2

Kd (human FcRn [2]): 73 nM
B5: Fv4-F1380 (antibody, human IgG1, kappa)
heavy: B1 heavy with Y254M, T256S, E258T, S428D, M430L, N436S, R440Q, E442S
light: B1 light
notes: as for B2

Kd (human FcRn [1]): 250 nM
B6: Fv4-F1167 (antibody, human IgG1, kappa)
heavy: B1 heavy with S426N, R440Q, E442S
light: B1 light
notes: copies: 2 + 2

Kd (human FcRn [2]): 160 nM
B7: Fv4-F1386 (antibody, human IgG1, kappa)
heavy: B1 heavy with Y254M, T256S, E258T, S428Y, M430L, N436S, R440Q, E442S
light: B1 light
notes: as for B2

Kd (human FcRn [2]): 130 nM
B8: Fv4-F1382 (antibody, human IgG1, kappa)
heavy: B1 heavy with Y254M, T256S, E258T, S428K, M430L, N436S, R440Q, E442S
light: B1 light
notes: as for B2

Kd (human FcRn [2]): 420 nM
B9: Fv4-F1391 (antibody, human IgG1, kappa)
heavy: B1 heavy with Y254M, T256S, E258T, M430L, N436S, Y438N, R440Q, E442S
light: B1 light
notes: as for B2

Kd (human FcRn [2]): 86 nM
B10: Fv4-F1381 (antibody, human IgG1, kappa)
heavy: B1 heavy with Y254M, T256S, E258T, S428E, M430L, N436S, R440Q, E442S
light: B1 light
notes: as for B2

Kd (human FcRn [2]): 80 nM
B11: Fv4-F1388 (antibody, human IgG1, kappa)
heavy: B1 heavy with Y254M, T256S, E258T, M430L, N436S, Y438F, R440Q, E442S
light: B1 light
notes: as for B2

Kd (human FcRn [2]): 86 nM
B12: Fv4-F1384 (antibody, human IgG1, kappa)
heavy: B1 heavy with Y254M, T256S, E258T, S428A, M430L, N436S, R440Q, E442S
light: B1 light
notes: as for B2

Kd (human FcRn [2]): 400 nM
B13: Fv4-F1390 (antibody, human IgG1, kappa)
heavy: B1 heavy with Y254M, T256S, E258T, M430L, N436S, Y438H, R440Q, E442S
light: B1 light
notes: as for B2

Kd (human FcRn [2]): 68 nM
B14: Fv4-F1389 (antibody, human IgG1, kappa)
heavy: B1 heavy with Y254M, T256S, E258T, M430L, N436S, Y438T, R440Q, E442S
light: B1 light
notes: as for B2

Kd [3]: 25 nM
Kd [4]: 2800 nM
Kd [5]: 56000 nM
B15: IL6R-BP187/IL6R-L (antibody, human IgG1, kappa)
heavy: QVQLQESGPGLVKPSETLSLTCAVSGHSISHDHAWSWVRQPPGEGLEWIGFISYSGITNYNPSLQGRVTISRDNSKNTLYLQMNSLRAEDTAVYYCARSLARTTAMDYWGEGTLVTVSSASTKGPSVFPLAPSSKSTSGGTAALGCLVKDYFPEPVTVSWNSGALTSGVHTFPAVLQSSGLYSLSSVVTVPSSSLGTQTYICNVNHKPSNTKVDKKVEPKSCDKTHTCPPCPAPEYLGGDSVFLFPPKPKDTLMISRTPEVTCVVVDVSHEDGEVKFNWYVDGVEVHNAKTKPREEQYNSTYRVVSVLTVLHQDWLNGKEYKCKVSNAALPKPIEKTISKAKGQPREPQVYTLPPSRDELTKNQVSLTCLVKGFYPSDIAVEWESNGQPENNYKTTPPVLDSDGSFFLYSKLTVDKSRWQQGNVFSCSVMHEALHNHYTQESLSLSP
light: not shown
notes: copies: 2 + 2

Kd [6]: 17000 nM
B16: IL6R-PD097/IL6R-L (antibody, human IgG1, kappa)
heavy: B1 heavy with P240D, S241D, T256S, E258T, N436Y, R440Q, E442S
light: not shown
notes: also called P238D/S239D; copies: 2 + 2

Kd [7]: 11000 nM
KD(IIb) of parent polypeptide/KD(IIb) of altered polypeptide [8]: 2.5 fold vs IL6R-B3/IL6R-L
B17: IL6R-BP103/IL6R-L (antibody, human IgG1, kappa)
heavy: B15 heavy with Y236L, S269V, G273P, A328K, K332A
light: not shown
notes: IgG1 type

Reference: US20220389118A1 (Chugai, published 2022)
